Experimental data reported in publication PMC9663503, “Independently evolved viral effectors convergently suppress DELLA protein SLR1-mediated broad-spectrum antiviral immunity in rice” (Nature Communications, 2022).

Biological target: T1, GST-SLR1 (rice (Oryza sativa), UniProt Q7G7J6 1-625)
T1 construct: SLENDER RICE 1 (SLR1), the rice DELLA protein; 'the cDNAs encoding SLR1'; source: E. coli Rosetta (DE3), purified (GSTrap FF column)
T1 sequence: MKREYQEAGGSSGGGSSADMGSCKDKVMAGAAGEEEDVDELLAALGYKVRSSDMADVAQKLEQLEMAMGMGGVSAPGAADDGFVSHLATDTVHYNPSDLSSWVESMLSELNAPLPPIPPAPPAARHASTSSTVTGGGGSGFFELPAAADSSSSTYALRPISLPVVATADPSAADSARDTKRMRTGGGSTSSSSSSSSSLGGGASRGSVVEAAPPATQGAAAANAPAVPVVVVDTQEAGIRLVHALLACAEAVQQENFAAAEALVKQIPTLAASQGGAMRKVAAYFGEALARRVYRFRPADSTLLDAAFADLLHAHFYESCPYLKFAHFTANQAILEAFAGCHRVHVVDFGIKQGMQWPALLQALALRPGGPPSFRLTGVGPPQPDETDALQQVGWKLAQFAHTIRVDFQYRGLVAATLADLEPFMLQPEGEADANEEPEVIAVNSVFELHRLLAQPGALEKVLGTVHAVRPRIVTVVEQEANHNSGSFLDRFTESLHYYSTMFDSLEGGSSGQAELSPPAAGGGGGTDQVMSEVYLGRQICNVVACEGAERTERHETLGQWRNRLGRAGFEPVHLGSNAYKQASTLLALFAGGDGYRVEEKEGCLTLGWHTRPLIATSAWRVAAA
Assay: pull-down; competitive pull-down: GST-SLR1 and MBP-His-OsGID1 with 100 µM GA3, then 10 or 50 µg TF-His-SP8 (or MBP-His-P2), 4 °C about 2 h; GST beads; anti-GST and anti-His blots
Conditions: both partners purified

B1: MBP-His-OsGID1 (receptor)
chain: MAGSDEVNRNECKTVVPLHTWVLISNFKLSYNILRRADGTFERDLGEYLDRRVPANARPLEGVSSFDHIIDQSVGLEVRIYRAAAEGDAEEGAAAVTRPILEFLTDAPAAEPFPVIIFFHGGSFVHSSASSTIYDSLCRRFVKLSKGVVVSVNYRRAPEHRYPCAYDDGWTALKWVMSQPFMRSGGDAQARVFLSGDSSGGNIAHHVAVRAADEGVKVCGNILLNAMFGGTERTESERRLDGKYFVTLQDRDWYWKAYLPEDADRDHPACNPFGPNGRRLGGLPFAKSLIIVSGLDLTCDRQLAYADALREDGHHVKVVQCENATVGFYLLPNTVHYHEVMEEISDFLNANLYY
notes: OsGID1, the rice gibberellin receptor GIBBERELLIN … DWARF1; also called PET32a-MBP-His-OsGID1; source: E. coli Rosetta (DE3), purified (Ni-NTA His-trap column)
binding result: binds
